Consider 6 molecules from patent US20150050306A1 (University of Washington, published 2015).

Experiment [1] concerns the target T1, Mota Fab.
T1 construct: also called Motavizumab Fab; Fab portion of Motavizumab
The experiment is described as follows: SPR (Biacore 2000); scaffold coupled to chip, Motavizumab as analyte.
Protocol: All experiments were carried out on a Biacore 2000 (GE Healthcare) at 25° C. with HBSEP (0.01 M HEPES pH 7.4, 0.15 M NaCl, 3 mM EDTA and 0.005% (v/v) Surfactant P20) (GE Healthcare) as running buffer. […] Samples of different protein concentrations were injected in duplicates over this surface at a flow rate of 50-100 μl/min. If necessary, surface regeneration was performed with two 60 seconds injections of 3 M MgCl₂ at a flow rate of 10 μl/min. One flow cell contained anti-human IgG only and its interaction with the analyte was used as reference. Alternatively, another format was used where the epitope where amine-coupled to the sensor chip and Mota Fab was injected with identical flow rates as mentioned above.
To test whether the functional site (mota epitope) was recreated with fidelity, binding affinities were assessed by Surface Plasmon Resonance (SPR) experiments (FIG. 6). […] (See Table 3) The scaffolds were coupled to the biacore chip and Motavizumab was used as analyte.

For experiment [2], the target named is T1, Mota Fab. As to the kind of experiment: SPR (Biacore 2000); koff/kon; scaffold coupled to chip, Motavizumab as analyte. A general note: In SPR one partner is held on a chip, and binding of the other changes the refractive index at the surface.

B1: FFL_004 (designed binder)
chain: GSMSDARKDLEERLDKLLEAAKNKMDKFKAAMRKRGQREERKKDWAKIVRDEFEQFRKAVRNFLSEALSKINDYPITNDDKKLTSNDTKKFAAEVEKKLEAFKADVEEAATQ
notes: Purified on Ni++ resin; no tag is stated for this construct
By koff is commonly meant the first-order rate constant of dissociation. Low readings indicate a long-lived complex, high ones a short-lived complex. For orientation: kon means the rate constant with which the complex forms. For orientation: Kd means the concentration at which binding is half-saturated. A low value points to a tighter complex. Turning to B1, in the experiment with Mota Fab [1], the off-rate constant (koff) was 0.000832 s⁻¹ and the kon came to 1.05e+06 M⁻¹ s⁻¹. The same molecule gave an equilibrium dissociation constant (Kd) with Mota Fab [2] of 0.795 nM.

B2: FFL_001 (designed binder)
chain: GSRSDMRKDAERRFDKFVEAAKNKFDKFKAALRKGDIKEERRKDMKKLARKEAEQARRAVRNRLSELLSKINDMPITNDQKKLMSNDVLKFAAEAEKKIEALAADAEDKFTQGSW
notes: monomeric
In the experiment with Mota Fab [1], B2 returned an off-rate constant (koff) of 0.000119 s⁻¹ and an association rate constant (kon) of 3.99e+06 M⁻¹ s⁻¹. Also, the affinity in the experiment with Mota Fab [2], expressed as Kd, was 0.03 nM.

B3: FFL_002 (designed binder)
chain: GSLSDVRKDVEKRIDKALEAFKNKMDKEKAAFRKDPPSEERRKDKKKEFREEREQVRKAIRNVLSEALSKINDLPITNDKKKLVSNDVIKKVAEMKKKVELEVADVEKKVTQGSW
notes: as for B1
B3: in the experiment with Mota Fab [1], the koff is 0.000734 s⁻¹ and the kon is 1.56e+06 M⁻¹ s⁻¹. The molecule further returned an equilibrium dissociation constant (Kd) with Mota Fab [2] of 0.47 nM.

B4: FFL_005 (designed binder)
chain: GSMSDIRKDLEERFDKLVEALKNKVDKMKAAFRKDQFHEERMKDWFKDLRKEVEQMRRAVRNYASEALSKINDLPITNDDKKLASNDVLKLVAEVWKKLEAILADVEAWFTQLEHHHHHH
As to B4, in the experiment with Mota Fab [1], the dissociation rate constant (koff) was determined as 0.000209 s⁻¹ and the on-rate constant (kon) came out at 2.97e+06 M⁻¹ s⁻¹. In the experiment with Mota Fab [2], binding was put at a Kd of 0.0703 nM.

B5: FFL_006 (designed binder)
chain: GSFSDIRKDAEDRADKAFEAAKNKFDKIKAAIRKDWPSEERAKDLMKKARYEMEQARRAIRNIESEALSKINDLPITNDQKKLASNDIIKEMARLFKKLEALMADIEILVTQ
notes: as for B1
Regarding B5, the affinity with Mota Fab [2], expressed as Kd, was 0.652 nM. In other words, the sub-nanomolar range.

B6: FFL_007 (designed binder)
chain: GSLSDIRKDAERRFDKLVEAVKNKLDKMKAALRKEGQQEERMKDLMKFMRKEVEQLRKAMRNFLSEALSKINDMPITNDDKKLISNDLKKYDAIAEKKLEAMKADVERMATQGSWLEHHHHHH
On to B6, for which, in the experiment with Mota Fab [1], the koff is 0.000136 s⁻¹ and the association rate constant (kon) was found to be 1.45e+06 M⁻¹ s⁻¹. Also, in the experiment with Mota Fab [2], the affinity, expressed as Kd, was 0.0941 nM.
